# Experimental data taken from article PMC3418226.
# Target: SAP (UniProt O60880)
# Assay: GST-SAP pull-down, anti-myc blot
# Conditions: reference: myc-CD3ζ wild type
substance,measurement,setting,value
CD3ζ (from UniProt P20963) Y83F,binding against the reference,sites Y83,weaker
CD3ζ (from UniProt P20963) Y72F/Y83F (first ITAM),binding against the reference,"sites Y72,Y83",lost
CD3ζ (from UniProt P20963) Y72F,binding against the reference,sites Y72,weaker
